Source: paper doi:10.1101/789552 (bioRxiv, 2019)
Where two headings read alike, the source gives them in different places.

B1: CAP2 (endogenous, rat hippocampus and primary hippocampal neurons) (natural protein, UniProt P52481 1-477, looked up)
chain: MADMLGLMQRLEFAVSRLERLSSGLHEPPGGCGEVNSLSRGIVAPSVEAFDKLINSMVAEFLKNSRVLAGDVETHAEMVHGAFQAQRAFLLMVSQHQQPQENEVAVLLKPISEKIQEIQTFRERNRGSDMFNHLSAVSESIAALGWIAVSPKPGPYVKEMNDAATFYTNRVLRDYKHSDLRHVDWVRSYLKIWSELQAYIKEHHTTGLTWSKTGPVASTASAFSILSSGPGLPPPPPPPPPPGPPPPFENEGGKEEPSPSRSALFAQLNQGEAITKGLRHVTDDKKIYKNPSLRAQGQIRSPTKTRTPSPTSSKSNSPQKHAPVLELEGKKWRVEYQEDRNDLVISETELKQVAYIFKCDKSTLQIKGKVNSITVDNCKKFGLVFDHVVGIVEVINSKDIQIQVMGRVPTISINKTEGCHLYLSKDALDCEIVSAKSSEMNVLVPQGDDYREFPIPEQFKTIWDGSKLITEPAEIMA
B2: CAP2 monomer (endogenous, human hippocampus) (natural protein, human (endogenous in hippocampus), UniProt P40123 1-477, looked up)
chain: MANMQGLVERLERAVSRLESLSAESHRPPGNCGEVNGVIAGVAPSVEAFDKLMDSMVAEFLKNSRILAGDVETHAEMVHSAFQAQRAFLLMASQYQQPHENDVAALLKPISEKIQEIQTFRERNRGSNMFNHLSAVSESIPALGWIAVSPKPGPYVKEMNDAATFYTNRVLKDYKHSDLRHVDWVKSYLNIWSELQAYIKEHHTTGLTWSKTGPVASTVSAFSVLSSGPGLPPPPPPLPPPGPPPLFENEGKKEESSPSRSALFAQLNQGEAITKGLRHVTDDQKTYKNPSLRAQGGQTQSPTKSHTPSPTSPKSYPSQKHAPVLELEGKKWRVEYQEDRNDLVISETELKQVAYIFKCEKSTIQIKGKVNSIIIDNCKKLGLVFDNVVGIVEVINSQDIQIQVMGRVPTISINKTEGCHIYLSEDALDCEIVSAKSSEMNILIPQDGDYREFPIPEQFKTAWDGSKLITEPAEIMA
B3: CAP2 (endogenous, mouse hippocampus) (natural protein, mouse (endogenous in hippocampus), UniProt Q9CYT6 1-476, looked up)
chain: MTDMAGLMERLERAVIRLEQLSAGLDGPPRGCGEVNGVNGGVAPSVEAFDKLINSMVAEFLKNSRVLAGDVETHAEMVHGAFQAQRAFLLMVSQYQQPQENEVAVLLKPISEKIQEIQTFRERNRGSNMFNHLSAVSESIAALGWIAVSPKPGPYVKEMNDAATFYTNRVLKDYKHSDLRHVDWVRSYLNIWSELQAYIREHHTTGLTWSKTGPVASTASAFSILSSGPGLPPPPPPPPPPGPPPPFENEDKKEEPSPSRSALFAQLNQGEAITKGLRHVTDDKKTYKNPSLRAQGQIRSPTKTHTPSPTSPKSNSPQKHTPVLELEGKKWRVEYQEDRNDLVISETELKQVAYIFKCDKSTLQIKGKVNSITVDNCKKFGLVFDHVVGIVEVINSKDIQIQVMGRVPTISINKTEGCHLYLSEDALDCEIVSAKSSEMNVLVPQDDDYREFPIPEQFKTIWDGSKLVTEPAEIMA
B4: Myc-CAP2 (natural protein, UniProt Q9CYT6 1-476, looked up)
chain: B3 chain
B5: Streptag-CAP2 (natural protein, UniProt Q9CYT6 1-476, looked up)
chain: B3 chain

Tests used:
Test in all cases: non-reducing SDS-PAGE with Western blot
[1] = molecular target: the molecule itself
[2] = molecular target: the molecule itself; remark: listed apart in the source
[3] = molecular target: the molecule itself; remark: listed apart in the source

Protein | stoichiometry N [1] | also measured
B1 | 2 | –
B2 | 2 | –
B3 | 2 | –
B4 | – | stoichiometry N [2]: 2
B5 | – | stoichiometry N [3]: 2
